Source: the RNAGym collection of RNA variant scans (doi:10.1021/acssynbio.7b00057)

B1: Pistol ribozyme (parent)
chain: GGGUCGUUGUUCCAUAAUCGCGUGGAUAUGGCACGCAAGUUUCUACCGGGCACCGUAAAUGUCCGACUGGAGCCGUUCGGGCGGCUAUAAACAGACCUCAGGCCCGAAGCGUGGCGGCACCUGCCGCCGGUGGUAAAAAAGAUCGGAAGAGCACACGUCU

Variants of: B1
Experiment: aptazyme ON/OFF ratio, guanine; higher = stronger switching; co-transcriptional cleavage with and without guanine

Variant | aptazyme ON/OFF ratio
U8A G9C U10A U11A C12U C13A | 1.18
U8A G9C U10A U11A C12U C13U | 1.17
U8A G9C U10A U11A C12U C13G | 1.19
U8A G9C U10G U11G C13U | 1.23
U8A G9C U10G U11G C13G | 1.16
U8A G9C U10G U11G C13A | 1.23
U8A G9C U11G C12A C13G | 1.25
U8A G9C U11G C12A C13A | 1.1
U8A G9C U11G C12A C13U | 1.2
U8A G9U C12U C13A | 1.36
U8A G9U C12U C13U | 1.36
U8A G9U C12U C13G | 1.25
U8A G9C U10C U11C C12U C13A | 1.01
U8A G9C U10C U11C C12U C13G | 1.01
U8A G9C U10C U11C C12U C13U | 1.03
U8A G9C C12A C13G | 1.17
U8A G9C C12A C13U | 1.25
U8A G9C C12A C13A | 1.24
U8A G9C C12U C13G | 1.15
U8A G9C C12U C13A | 1.21
U8A G9C C12U C13U | 1.2

Variant | aptazyme ON/OFF ratio
U8A G9C U11C C12G C13A | 1.07
U8A G9C U11C C12G C13G | 1.05
U8A G9C U11C C12G C13U | 1.06
U8A G9C U10C U11C C12A | 1.04
U8A G9C U10C U11C C12U | 1
U8A G9C U10C U11C C12G | 1.01
U8A G9C U10G U11C C12A C13G | 1.12
U8A G9C U10G U11C C12A C13A | 1.17
U8A G9C U10G U11C C12A C13U | 1.21
U8A G9C U11A C12U C13G | 1.15
U8A G9C U11A C12U C13A | 1.14
U8A G9C U11A C12U C13U | 1.15
U8A G9A U11G C12U C13A | 1.23
U8A G9A U11G C12U C13G | 1.18
U8A G9A U11G C12U C13U | 1.51
U8A G9C U10C U11G C12U | 1.08
U8A G9C U10C U11G C12A | 1.07
U8A G9C U10C U11G C12G | 1.12
U8A G9U U10A C12A C13U | 1.36
U8A G9U U10A C12A C13G | 1.12
U8A G9U U10A C12A C13A | 1.22

Variant | aptazyme ON/OFF ratio
U8A G9U U10A U11A C12G C13A | 1.27
U8A G9U U10A U11A C12G C13U | 1.38
U8A G9U U10A U11A C12G C13G | 1.32
U8A G9C U10C U11C C12G C13U | 1.04
U8A G9C U10C U11C C12G C13G | 1.05
U8A G9C U10C U11C C12G C13A | 1.01
U8A G9C U10C U11G C12U C13G | 1.08
U8A G9C U10C U11G C12U C13A | 1.07
U8A G9C U10C U11G C12U C13U | 1.07
U8A G9C U10C C12G C13U | 1.05
U8A G9C U10C C12G C13G | 1.03
U8A G9C U10C C12G C13A | 1.07
U8A G9C U10C C12G | 1.05
U8A G9C U10C C12A | 1.04
U8A G9C U10C C12U | 1.06
U8A G9C U10C U11G C12A C13A | 1.06
U8A G9C U10C U11G C12A C13U | 1.02
U8A G9C U10C U11G C12A C13G | 1.08
U8A G9C U10G U11C C12A | 1.18
U8A G9C U10G U11C C12G | 1.14
U8A G9C U10G U11C C12U | 1.05

Variant | aptazyme ON/OFF ratio
U8A G9U U10A U11C C12G C13U | 1.34
U8A G9U U10A U11C C12G C13A | 1.14
U8A G9U U10A U11C C12G C13G | 1.12
U8A G9C U10A U11G C12U C13U | 1.14
U8A G9C U10A U11G C12U C13G | 1.18
U8A G9C U10A U11G C12U C13A | 1.17
U8A G9C U10C U11G C13G | 1.05
U8A G9C U10C U11G C13U | 1.08
U8A G9C U10C U11G C13A | 1.08
U8A G9U C13U | 1.4
U8A G9U C13A | 1.24
U8A G9U C13G | 1.09
U8A G9U U10A U11C C12G | 1.09
U8A G9U U10A U11C C12A | 1.07
U8A G9U U10A U11C C12U | 1.11
U8A G9C U10C C13A | 1.01
U8A G9C U10C C13G | 1.01
U8A G9C U10C C13U | 1.06
U8A G9C U11C C12G | 1.07
U8A G9C U11C C12A | 1.08
U8A G9C U11C C12U | 1.09
